One assay has as its target T1, recombinant mouse IL-27 (mouse, UniProt O35228 19-228; Q8K3I6 29-234, limits assumed).
T1 construct: also called rodent recombinant IL-27
T1 sequence (looked up) 1: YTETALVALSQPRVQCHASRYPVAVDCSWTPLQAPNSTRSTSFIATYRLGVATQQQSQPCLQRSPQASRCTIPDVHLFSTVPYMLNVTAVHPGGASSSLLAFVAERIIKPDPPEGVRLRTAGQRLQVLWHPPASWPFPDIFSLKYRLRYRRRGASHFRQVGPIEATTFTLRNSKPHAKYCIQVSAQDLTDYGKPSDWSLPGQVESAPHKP
T1 sequence (looked up) 2: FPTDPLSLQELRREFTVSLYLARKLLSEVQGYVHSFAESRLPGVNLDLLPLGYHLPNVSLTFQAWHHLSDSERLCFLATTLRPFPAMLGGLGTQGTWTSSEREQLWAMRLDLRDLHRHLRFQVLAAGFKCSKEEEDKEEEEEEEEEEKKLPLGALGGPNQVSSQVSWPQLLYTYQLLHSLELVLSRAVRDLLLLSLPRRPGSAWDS
Nature of the assay: column 'Affinity mIL-27 (M)'; method not given.

In assay [1] the target is T2, recombinant human IL-27 (human, UniProt Q14213 21-229; Q8NEV9 29-243).
T2 construct: Bought from R&D Systems (Cat. 2526-IL); also called hIL-27; rhIL-27
T2 sequence 1: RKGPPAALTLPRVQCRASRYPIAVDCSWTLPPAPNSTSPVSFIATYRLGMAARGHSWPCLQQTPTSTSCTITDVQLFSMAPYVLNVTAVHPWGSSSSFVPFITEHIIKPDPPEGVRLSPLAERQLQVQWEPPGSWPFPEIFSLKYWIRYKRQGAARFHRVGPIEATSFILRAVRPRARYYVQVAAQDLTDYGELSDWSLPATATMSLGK
T2 sequence 2: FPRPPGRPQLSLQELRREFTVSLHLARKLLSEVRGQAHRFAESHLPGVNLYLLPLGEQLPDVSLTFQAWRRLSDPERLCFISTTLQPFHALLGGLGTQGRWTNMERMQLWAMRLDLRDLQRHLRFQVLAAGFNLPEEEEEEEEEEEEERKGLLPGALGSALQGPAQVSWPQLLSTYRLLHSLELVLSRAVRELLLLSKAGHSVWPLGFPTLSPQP
The assay can be described thus: column 'Affinity hIL-27 (M)', property (i); method not given, paragraph 885 names SPR (BIACORE 2000).

Assay [2] deals with T2, recombinant human IL-27. Nature of the assay: SPR, hIL-27 on CM5 chip, bivalent analyte model. The procedure:
(§1) The antibodies were further characterized by surface plasmon resonance (SPR). Kinetic experiments were performed on a Biacore T200 (GE Healthcare, Uppsala, Sweden). All experiments were run at 25° C. with HBS-P+ running buffer (pH 7.4) (GE Healthcare, Little Chalfont, UK) using hIL-27 (R&D Systems, Abingdon, UK). Human IL-27 (hIL-27) antigen was captured on a CM5 chip to ˜16 RU. Immobilization was carried out at a protein concentration of 1 μg/mL in 10 mM acetate buffer pH 5.0. A three point, three-fold dilution range from 3.3 nM to 30 nM of antibody diluted in HBS-P+ buffer without regeneration between each concentration was used. The association phase for the three injections of increasing concentrations of antibody was monitored for 75 seconds each time and a single dissociation phase was measured for 250 seconds following the last injection of antibody. Regeneration of the hIL-27 surface was conducted using a single injection of 2M MgCl₂ for 120 s. Multiple repeats (n=4) of the chimeric antibody were performed throughout the assay to check the stability of the surface and analyte over the kinetic cycles.
(§2) Both 1:1 binding and bivalent analyte models were used to analyze the data due to the bivalent nature of the antibody. The results from the 1:1 binding model analysis are summarized in Table 4 and results from the bivalent analyte model are summarized in Table 5.

Assay [3] deals with T2, recombinant human IL-27. The assay can be described thus: SPR, hIL-27 on CM5 chip, bivalent analyte model (ka1). The method, then:
as §1, §2

The target of assay [4] is T2, recombinant human IL-27. The assay can be described thus: SPR, hIL-27 on CM5 chip, bivalent analyte model (kd1). The method, then:
as §1, §2

The target in assay [5] is T2, recombinant human IL-27. Nature of the assay: SPR (Biacore T200), hIL-27 on CM5 chip, single cycle, 1:1 model. The procedure: as §1, §2

B1: SRF529 (antibody, V domains shown)
VH: EVQLVESGGGLVKPGGSLRLSCAASGFTFSSYSMNWVRQAPGKGLEWVSSISSSSSYIYYADSVKGRFTISRDNAKNSLYLQMNSLRAEDTAVYYCARDGGRTSYTATAHNWFDPWGQGTLVTVSS
VL: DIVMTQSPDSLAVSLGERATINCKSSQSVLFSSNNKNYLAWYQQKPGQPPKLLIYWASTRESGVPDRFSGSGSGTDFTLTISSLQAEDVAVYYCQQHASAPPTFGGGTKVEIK
notes: also called SRF529-A; SRF529-B
Take B1: the Kd turned out to be 1.33 nM with recombinant mouse IL-27 and 0.0059 nM in the assay with recombinant human IL-27 [1].

B2: SRF536 (antibody, V domains shown)
VH: QVQLQQWGAGLLKPSETLSLTCAVYGGSFSEYYWAWIRQPPGKGLEWIGEIDEVGSTNYNPSLKSRVTISVDTSKNQFSLKLSSVTAADTAVYYCARLPMYYYDSSDLPMDVWGQGTTVTVSS
VL: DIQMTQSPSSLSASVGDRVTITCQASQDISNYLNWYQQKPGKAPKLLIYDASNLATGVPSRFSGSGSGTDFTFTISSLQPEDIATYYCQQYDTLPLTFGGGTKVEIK
notes: also called SRF536-A; SRF536-B
Turning to B2, the equilibrium dissociation constant (Kd) with recombinant mouse IL-27 came out at 80.5 nM; in the assay with recombinant human IL-27 [1], 0.048 nM.

B3: Ab7.14 (antibody, human IgG1, kappa, V domains shown)
VH: EVKLVESGGGLVQPGGSLRLSCAASGFTFTSYSMSWVRQAPGKGLEWVAYISYDGGSAYYPDTVKGRFTISRDNSKKTLYLQMNSLRAEDTAVYYCARHGDYDDDDAMDYWGQGTLVTVSS
VL: DIQMTQSPSSLSASVGDRVTITCRASENIYSYLAWYQQKPGKAPKLLVYNAETLTEGVPSRFSGSGSGTDFTLTISSLQPEDFATYYCQHHYGTPLTFGQGTKLEIKR
notes: human IgG1/kappa
Turning to B3, in the assay with recombinant human IL-27 [2], the ka2 is 0.039 1/RUs and the kd2 came to 0.099 s⁻¹. Moreover, in the assay with recombinant human IL-27 [3], the kon came to 700000 M⁻¹ s⁻¹. For the same molecule, the koff with recombinant human IL-27 [4] worked out at 0.0026 s⁻¹. Further, in the assay with recombinant human IL-27 [5], the Kd was 1.2 nM, the “Relative KD to Ab7.1” value is 1.2, the koff came to 0.0018 s⁻¹ and the kon was found to be 1.5e+06 M⁻¹ s⁻¹.

B4: Ab7.20 (antibody, human IgG1, kappa, V domains shown)
VH: EVQLVESGGGLVQPGGSLRLSCAASGFTFTSYSMSWVRQAPGKGLEWVSYISYDGGSAYYPDTVKGRFTISRDNSKNTLYLQMNSLRAEDTAVYYCARHGDYDDDDAMDYWGQGTLVTVSS
VL: DIQMTQSPSSLSASVGDRVTITCRASENIYSYLAWYQQKQGKAPKLLVYNAETLTEGVPSRFSGSGSGTDFTLTISSLQPEDFANYYCQHHYGTPLTFGQGTKLDIKR
notes: human IgG1/kappa
As to B4, in the assay with recombinant human IL-27 [2], the ka2 was 0.036 1/RUs and the kd2 turned out to be 0.086 s⁻¹. For the same molecule, the kon with recombinant human IL-27 [3] came to 620000 M⁻¹ s⁻¹. Further, the koff with recombinant human IL-27 [4] amounted to 0.0025 s⁻¹. In the assay with recombinant human IL-27 [5], the Kd turned out to be 1.4 nM, the “Relative KD to Ab7.1” value came out at 1.4, the koff was 0.0018 s⁻¹ and the kon is 1.3e+06 M⁻¹ s⁻¹.

B5: Ab7.16 (antibody, human IgG1, kappa, V domains shown)
VH: EVQLVESGGGLVQPGGSLRLSCAASGFTFTSYSMSWVRQAPGKGLEWVAYISYDGGSAYYPDTVKGRFTISRDNSKNTLYLQMNSLRAEDTAVYYCARHGDYDDDDAMDYWGQGTLVTVSS
VL: DIQMTQSPSSLSASVGDRVTITCRASENIYSYLAWYQQKQGKAPKLLVYNAETLTEGVPSRFSGSGSGTDFTLTISSLQPEDFANYYCQHHYGTPLTFGQGTKLDIKR
notes: human IgG1/kappa
As to B5, in the assay with recombinant human IL-27 [2], the ka2 was 0.04 1/RUs and the kd2 was determined as 0.091 s⁻¹. In the assay with recombinant human IL-27 [3], the kon turned out to be 570000 M⁻¹ s⁻¹. In the assay with recombinant human IL-27 [4], the koff turned out to be 0.0027 s⁻¹. In the assay with recombinant human IL-27 [5], the Kd was found to be 1.5 nM, the “Relative KD to Ab7.1” value came to 1.4, the koff was 0.0018 s⁻¹ and the kon is 1.3e+06 M⁻¹ s⁻¹.

B6: Ab7.21 (antibody, human IgG1, kappa, V domains shown)
VH: EVQLVESGGGLVQPGGSLRLSCAASGFTFTSYSMSWVRQAPGKGLEWVSYISYDGGSAYYPDTVKGRFTISRDNSKNTLYLQMNSLRAEDTAVYYCARHGDYDDDDAMDYWGQGTLVTVSS
VL: DIQMTQSPSSLSASVGDRVTITCRASENIYSYLAWYQQKPGKAPKLLVYNAETLTEGVPSRFSGSGSGTDFTLTISSLQPEDFANYYCQHHYGTPLTFGQGTKLEIKR
notes: human IgG1/kappa
For B6, in the assay with recombinant human IL-27 [2], the ka2 was 0.043 1/RUs and the kd2 turned out to be 0.097 s⁻¹. Further, the kon with recombinant human IL-27 [3] stood at 550000 M⁻¹ s⁻¹. For the same molecule, the koff with recombinant human IL-27 [4] turned out to be 0.0027 s⁻¹. Moreover, in the assay with recombinant human IL-27 [5], the Kd is 1.5 nM, the “Relative KD to Ab7.1” value worked out at 1.5, the koff came out at 0.0019 s⁻¹ and the kon came out at 1.2e+06 M⁻¹ s⁻¹.

B7: Ab7.18 (antibody, human IgG1, kappa, V domains shown)
VH: EVQLVESGGGLVQPGGSLRLSCAASGFTFTSYSMSWVRQAPGKGLEWVAYISYDGGSAYYPDTVKGRFTISRDNSKNTLYLQMNSLRAEDTAVYYCARHGDYDDDDAMDYWGQGTLVTVSS
VL: DIQMTQSPSSLSASVGDRVTITCRASENIYSYLAWYQQKPGKAPKLLVYNAETLTEGVPSRFSGSGSGTDFTLTISSLQPEDFATYYCQHHYGTPLTFGQGTKLEIKR
notes: human IgG1/kappa
As to B7, in the assay with recombinant human IL-27 [2], the ka2 was 0.053 1/RUs and the kd2 amounted to 0.11 s⁻¹. For the same molecule, the kon with recombinant human IL-27 [3] came out at 570000 M⁻¹ s⁻¹. Also, the koff with recombinant human IL-27 [4] stood at 0.0028 s⁻¹. Besides, in the assay with recombinant human IL-27 [5], the Kd came to 1.5 nM, the “Relative KD to Ab7.1” value worked out at 1.4, the koff is 0.0019 s⁻¹ and the kon worked out at 1.3e+06 M⁻¹ s⁻¹.

B8: Ab7.22 (antibody, human IgG1, kappa, V domains shown)
VH: EVQLVESGGGLVQPGGSLRLSCAASGFTFTSYSMSWVRQAPGKGLEWVSYISYDGGSAYYPDTVKGRFTISRDNSKNTLYLQMNSLRAEDTAVYYCARHGDYDDDDAMDYWGQGTLVTVSS
VL: DIQMTQSPSSLSASVGDRVTITCRASENIYSYLAWYQQKPGKAPKLLVYNAETLTEGVPSRFSGSGSGTDFTLTISSLQPEDFATYYCQHHYGTPLTFGQGTKLEIKR
notes: human IgG1/kappa
In the case of B8, in the assay with recombinant human IL-27 [2], the ka2 is 0.49 1/RUs and the kd2 came out at 1.11 s⁻¹. In addition, the kon with recombinant human IL-27 [3] amounted to 580000 M⁻¹ s⁻¹. Besides, the koff with recombinant human IL-27 [4] was found to be 0.0027 s⁻¹. Moreover, in the assay with recombinant human IL-27 [5], the Kd was found to be 1.5 nM, the “Relative KD to Ab7.1” value stood at 1.5, the koff was determined as 0.0019 s⁻¹ and the kon amounted to 1.3e+06 M⁻¹ s⁻¹.

B9: SRF416 (antibody, V domains shown)
VH: QVQLQQWGAGLLKPSETLSLTCAVYGGSFSGYYWSWIRQPPGKGLEWIGEIDVDGSTNYNPSLKSRVTISVDTSKNQFSLKLSSVTAADTAVYYCARDGYYYDTSPYDVWGQGTMVTVSS
VL: EIVLTQSPATLSLSPGERATLSCRASQSVSSYLAWYQQKPGQAPRLLIYDASNRATGIPARFSGSGSGTDFTLTISSLEPEDFAVYYCQQRDSFPLTFGGGTKVEIK
notes: also called SRF416-A; SRF416-B
Take B9: the binding result with recombinant mouse IL-27 is “no binding”.

B10: Ab7 (antibody)
heavy: EVKLVESGGGLVQPGGSLKLFCAASGFTFTSYSMSWVRQTPEKRLEWVAYISYDGGSAYYPDTVKGRFSISRDNAKKTLYLQMSSLKSEDTAMYYCARHGDYDDDDAMDYWGQGTSVTVSSAKTTAPSVYPLAPVCGDTTGSSVTLGCLVKGYFPEPVTLTWNSGSLSSGVHTFPAVLQSDLYTLSSSVTVTSSTWPSQSITCNVAHPASSTKVDKKIEPRGPTIKPCPPCKCPAPNLLGGPSVFIFPPKIKDVLMISLSPIVTCVVVDVSEDDPDVQISWFVNNVEVHTAQTQTHREDYNSTLRVVSALPIQHQDWMSGKEFKCKVNNKDLPAPIERTISKPKGSVRAPQVYVLPPPEEEMTKKQVTLTCMVTDFMPEDIYVEWTNNGKTELNYKNTEPVLDSDGSYFMYSKLRVEKKNWVERNSYSCSVVHEGLHNHHTTKSFSRTPGK
light: DIQMTQSPASLSASVGETVTITCRASENIYSYLAWYQQKQGKSPQLLVYNAETLTEGVPSRFSGSGSGTQFSLKINSLQPEDFGNYYCQHHYGTPLTFGAGTKLDLKADAAPTVSIFPPSSEQLTSGGASVVCFLNNFYPKDINVKWKIDGSERQNGVLNSWTDQDSKDSTYSMSSTLTLTKDEYERHNSYTCEATHKTSTSPIVKSFNRNEC
notes: mouse hybridoma antibody (mIgG2a/kappa); also called isolated anti-EBI3 antibody Ab7; parental Ab7 antibody
Regarding B10, in the assay with recombinant mouse IL-27, the binding result was “no binding”. For the same molecule, the equilibrium dissociation constant (Kd) in the assay with recombinant human IL-27 [1] came out at 1 nM.

B11: SRF557 (antibody, V domains shown)
VH: QVQLVQSGAEVKKPGSSVKVSCKASGGTFSSYAISWVRQAPGQGLEWMGGIIPIFGTANYAQKFQGRVTITADESTSTAYMELSSLRSEDTAVYYCARLGGRGYADEGWYFDLWGRGTLVTVSS
VL: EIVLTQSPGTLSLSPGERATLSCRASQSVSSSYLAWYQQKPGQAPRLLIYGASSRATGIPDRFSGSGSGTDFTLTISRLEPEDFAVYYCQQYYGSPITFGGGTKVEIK
notes: also called SRF557-A; SRF557-B
As for B11, the binding result with recombinant mouse IL-27 was “no binding”.

The values are drawn from patent publication US20190382474A1 (SURFACE ONCOLOGY, published 2019).
